5 molecules from article PMC4125498 (Nature structural & molecular biology, 2014) can be followed below.

B2: human Plk4 cryptic polo box (CPB, residues 580–808), His6-MBP tag removed (domain or fragment, UniProt O00444 580-808, looked up)
chain: WGYQNRTLRSITSPLVAHRLKPIRQKTKKAVVSILDSEEVCVELVKEYASQEYVKEVLQISSDGNTITIYYPNGGRGFPLADRPPSPTDNISRYSFDNLPEKYWRKYQYASRFVQLVRSKSPKITYFTRYAKCILMENSPGADFEVWFYDGVKIHKTEDFIQVIEKTGKSYTLKSESEVNSLKEEIKMYMDHANEGHRICLALESIISEEERKTRSAPFFPIIIGRKPG

Experiment [1] concerns the target B2. The experiment is described as follows: fluorescence polarisation. Background: Polarisation of emitted light reports the rotation of a fluorescent probe.
The target of experiment [2] is T1, His6-MBP-TEV-Cep192 58mer (201–258) (human, UniProt Q8TEP8 201-258).
T1 sequence (looked up): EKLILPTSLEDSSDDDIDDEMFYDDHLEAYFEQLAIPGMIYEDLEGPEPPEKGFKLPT
The experiment is described as follows: pull-down.

The next experiment addresses T2, GST-Plk4 C (580–970) (human, UniProt O00444 580-970).
T2 sequence (looked up): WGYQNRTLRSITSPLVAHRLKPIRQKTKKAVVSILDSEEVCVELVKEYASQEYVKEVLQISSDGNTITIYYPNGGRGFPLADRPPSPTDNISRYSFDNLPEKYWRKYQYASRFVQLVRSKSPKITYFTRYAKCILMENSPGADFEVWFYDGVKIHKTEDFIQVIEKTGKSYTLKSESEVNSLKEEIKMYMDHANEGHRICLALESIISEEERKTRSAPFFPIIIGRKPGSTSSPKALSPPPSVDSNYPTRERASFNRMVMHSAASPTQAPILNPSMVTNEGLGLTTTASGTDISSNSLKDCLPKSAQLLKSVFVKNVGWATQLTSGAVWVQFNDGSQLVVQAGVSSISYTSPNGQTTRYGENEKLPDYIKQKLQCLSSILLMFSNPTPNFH
The experiment is described as follows: pull-down.

For experiment [3], the target named is B2. Kind of experiment: fluorescence polarisation. This is another data set of the same source.

No end group written: not given here.

B1: Alexa 488-conjugated MBP-Cep192-58mer (domain or fragment, human, UniProt Q8TEP8 201-258, looked up)
chain: EKLILPTSLEDSSDDDIDDEMFYDDHLEAYFEQLAIPGMIYEDLEGPEPPEKGFKLPT
modifications: also: Alexa Fluor 488 conjugated, sites not given here, MBP fusion
In experiment [1], B1 showed a Kd of 177 nM. For B2, in experiment [2], the “stoichiometry N” value was ~2 MBP-Cep192-58mer per CPB dimer.

B3: His6-MBP-TEV-Cep152 (1–217) (domain or fragment, human, UniProt O94986 1-217, looked up)
chain: MSLDFGSVALPVQNEDEEYDEEDYEREKELQQLLTDLPHDMLDDDLSSPELQYSDCSEDGTDGQPHHPEQLEMSWNEQMLPKSQSVNGYNEIQSLYAGEKCGNVWEENRSKTEDRHPVYHPEEGGDEGGSGYSPPSKCEQTDLYHLPENFRPYTNGQKQEFNNQATNVIKFSDPQWNHFQGPSCQGLEPYNKVTYKPYQSSAQNNGSPAQEITGSDT
For the molecule B3, the binding result with GST-Plk4 C (580–970) is “binds”.

B4: Alexa 488-conjugated MBP-Cep152-60mer (domain or fragment, human, UniProt O94986 1-60, looked up)
chain: MSLDFGSVALPVQNEDEEYDEEDYEREKELQQLLTDLPHDMLDDDLSSPELQYSDCSEDG
modifications: also: Alexa Fluor 488 conjugated, sites not given here, MBP fusion
Turning to B4, the Kd in experiment [1] was 32 nM.

B5: His6-MBP-TEV-Cep152 60mer (1–60) (domain or fragment, human, UniProt O94986 1-60, looked up)
chain: MSLDFGSVALPVQNEDEEYDEEDYEREKELQQLLTDLPHDMLDDDLSSPELQYSDCSEDG
In experiment [3], B5 came in with an IC50 of 64 nM.

The Kd is the concentration at which binding is half-saturated. A low value points to a tighter complex. By IC50 is commonly meant the point on the concentration scale where inhibition reaches its midpoint. A higher IC50 goes with weaker potency in that assay.
